The source of these data is publication PMC4395418, “The Aspartate-Less Receiver (ALR) Domains: Distribution, Structure and Function” (PLoS Pathogens, 2015).

Series [1] concerns the molecule itself. The series is described as follows: SEC; purified 15N-labelled RitRALR (ALR domain only) wild-type and Ala mutants; oligomeric state. Background: SEC sorts molecules by how far they enter the pores of the column.
The target in a further series is RitR FL wild-type (Streptococcus pneumoniae R800, UniProt A0ACD7PPZ9 1-229). Kind of series: EMSA; up to 6.6 uM protein; 20 mM HEPES pH 7.2, 5 mM MgCl2, 1 mM CaCl2, 0.1 mM EDTA, 10 mM DTT, 10% glycerol, 0.5 uM DNA, 800 ng poly(dI-dC) in 20 ul, room temperature 10 min; 4% native TAE PAGE. As to conditions: protein: recombinant; tags: His6-SUMO removed by ULP1; chain copies: 2; label: 5' HEX on strand 1; blunt. On the technique in general: In EMSA bound probe runs differently from free probe, usually more slowly.

Another series concerns the target RitR FL Y100A (Streptococcus pneumoniae R800, UniProt A0ACD7PPZ9 1-229, Y100A). The series is described as follows: EMSA; binding seen at 0.22 uM protein; 20 mM HEPES pH 7.2, 5 mM MgCl2, 1 mM CaCl2, 0.1 mM EDTA, 10 mM DTT, 10% glycerol, 0.5 uM DNA, 800 ng poly(dI-dC) in 20 ul, room temperature 10 min; 4% native TAE PAGE. The note with it: protein: recombinant; tags: His6-SUMO removed by ULP1; chain copies: 2; label: 5' HEX on strand 1; blunt.

The next series addresses RitR FL D81A (Streptococcus pneumoniae R800, UniProt A0ACD7PPZ9 1-229, D81A). The series is described as above. The note with it: protein: recombinant; tags: His6-SUMO removed by ULP1; chain copies: 2; label: 5' HEX on strand 1; blunt.
Another series concerns the target RitR FL F96G (Streptococcus pneumoniae R800, UniProt A0ACD7PPZ9 1-229, F96G). Kind of series: EMSA; 20 mM HEPES pH 7.2, 5 mM MgCl2, 1 mM CaCl2, 0.1 mM EDTA, 10 mM DTT, 10% glycerol, 0.5 uM DNA, 800 ng poly(dI-dC) in 20 ul, room temperature 10 min; 4% native TAE PAGE. As to conditions: protein: recombinant; tags: His6-SUMO removed by ULP1; chain copies: 2; label: 5' HEX on strand 1; blunt.

In the next series the target is RitR FL L90A (Streptococcus pneumoniae R800, UniProt A0ACD7PPZ9 1-229, L90A). Described as above. As to conditions: protein: recombinant; tags: His6-SUMO removed by ULP1; chain copies: 2; label: 5' HEX on strand 1; blunt.
A further series addresses RitR FL L86A (Streptococcus pneumoniae R800, UniProt A0ACD7PPZ9 1-229, L86A). The series is described as above. As to conditions: protein: recombinant; tags: His6-SUMO removed by ULP1; chain copies: 2; label: 5' HEX on strand 1; blunt.
The target in another series is RitR FL L86A/V93A (Streptococcus pneumoniae R800, UniProt A0ACD7PPZ9 1-229, L86A;V93A). The series is described as above. The note with it: protein: recombinant; tags: His6-SUMO removed by ULP1; chain copies: 2; label: 5' HEX on strand 1; blunt.
Series [2] concerns the molecule itself. Kind of series: SEC; RitRFL wild-type and mutants; Agilent 1220 HPLC, BioBasic SEC-300A column, 50 mM TRIS pH 8.0, 150 mM NaCl, 10 mM DTT; proteins pre-treated with 10 mM DTT; 0.5 ml/min, ambient temperature.

Numbering of substitutions follows the chain as printed.

B1: RitR ALR (REC) receiver domain, Leu86 to Ala mutant (domain or fragment)
chain: MGKRILLLEKERNLAHFLSLELQKEQYRVDLVEEGQKALSMALQTDYDLILLNVNLGDMMAQDFAEKLSRTKPASVIMILDHWEDAQEELEVVQRFAVSYIYKPVLIENLVARISAIFRGRDFIG
notes: RitR, Streptococcus pneumoniae strain R800, ALR (REC) domain, amino acids Met1-Ile124, Ala substitution of Leu86; extra C-terminal glycine residue; PDB 4LZL is the wild-type parent of the same limits; also called RitRALR Leu86 mutant; source: E. coli BL21 DE3, 15N-labelled in M9 medium, purified (Ni-NTA, ULP1 cleavage, subtractive Ni-NTA); not shown: His6, N-terminal, cleaved; SUMO, N-terminal, …
Broadly, the stoichiometry N is a count of units in the complex or per binding partner. For B1, the “stoichiometry N” value in [1] was 2.

B2: RitR ALR (REC) receiver domain, Leu90 to Ala mutant (domain or fragment)
chain: B1 chain with A86L, L90A
notes: RitR, Streptococcus pneumoniae strain R800, ALR (REC) domain, amino acids Met1-Ile124, Leu90 changed to Ala; extra C-terminal glycine residue; PDB 4LZL is the wild-type parent of the same limits; also called RitRALR Leu90>Ala mutant; Leu90 mutant; source: E. coli BL21 DE3, 15N-labelled in M9 medium, purified (Ni-NTA, ULP1 cleavage, subtractive Ni-NTA); not shown: His6, N-terminal, cleaved; SUMO, …
For the molecule B2, the “stoichiometry N” value in series [1] is 2.

B3: BS2 33-mer (dsDNA)
DNA 1: ATTTTATTGACAGATTAGAAAAATAATGTTACA
DNA 2: TGTAACATTATTTTTCTAATCTGTCAATAAAAT
In the case of B3, the binding result is reported as “no binding” with RitR FL wild-type; “binds” with RitR FL Y100A; “binds” with RitR FL D81A; “no binding” in the series with RitR FL F96G; “binds” with RitR FL L90A; “binds” with RitR FL L86A. For the same molecule, the binding result in the series with RitR FL L86A/V93A is listed as “binds”.

B4: RitR full-length, Leu86 to Ala Gate mutant (natural protein)
chain: MGKRILLLEKERNLAHFLSLELQKEQYRVDLVEEGQKALSMALQTDYDLILLNVNLGDMMAQDFAEKLSRTKPASVIMILDHWEDAQEELEVVQRFAVSYIYKPVLIENLVARISAIFRGRDFIDQHCSLMKVPRTYRNLRIDVEHHTVYRGEEMIALTRREYDLLATLMGSKKVLTREQLLESVWKYESATETNIVDVYIRYLRSKLDVKGQKSYIKTVRGVGYTMQE
notes: RitR, Streptococcus pneumoniae strain R800, full-length, Gate residue Leu86 changed to Ala; also called RitRFL Leu86 mutant; source: E. coli BL21(DE3) or BL21(DE3)-Star, purified (Ni2+ agarose, ULP1 cleavage, subtractive Ni2+ column); not shown: His6, N-terminal, cleaved; SUMO, N-terminal, cleaved
Take B4: the “stoichiometry N” value in series [2] was determined as 2.

B5: RitR full-length, Leu90 to Ala Gate mutant (natural protein)
chain: B4 chain with A86L, L90A
notes: RitR, Streptococcus pneumoniae strain R800, full-length, Gate residue Leu90 changed to Ala; also called RitRFL Leu90 mutant; source: E. coli BL21(DE3) or BL21(DE3)-Star, purified (Ni2+ agarose, ULP1 cleavage, subtractive Ni2+ column); not shown: His6, N-terminal, cleaved; SUMO, N-terminal, cleaved
On to B5, for which the “stoichiometry N” value in series [2] came out at 2.

B6: RitR full-length, Leu86/Val93 double mutant (natural protein)
chain: B4 chain with V93A
notes: RitR, Streptococcus pneumoniae strain R800, full-length, Val93 mutant combined with a Leu86 mutation (Ala); also called RitRFL Leu86/Val93 double mutant; source: E. coli BL21(DE3) or BL21(DE3)-Star, purified (Ni2+ agarose, ULP1 cleavage, subtractive Ni2+ column); not shown: His6, N-terminal, cleaved; SUMO, N-terminal, cleaved
Consider B6, for which, in [2], the “stoichiometry N” value was 2.

B7: RitR full-length, Val93 to Ala Gate mutant (natural protein)
chain: B4 chain with A86L, V93A
notes: RitR, Streptococcus pneumoniae strain R800, full-length, Ala substitution of Gate residue Val93; also called RitRFL Val93 mutant; source: E. coli BL21(DE3) or BL21(DE3)-Star, purified (Ni2+ agarose, ULP1 cleavage, subtractive Ni2+ column); not shown: His6, N-terminal, cleaved; SUMO, N-terminal, cleaved
For the molecule B7, the “stoichiometry N” value in series [2] is 2.
